Test results taken from patent publication US20250163127A1.

B1: variant PD-L2 IgV I13V/H15Q/V89D Fc fusion (Fc fusion)
chain: LFTVTVPKELYIVEQGSNVTLECNFDTGSHVNLGAITASLQKVENDTSPHRERATLLEEQLPLGKASFHIPQVQVRDEGQYQCIIIYGDAWDYKYLTLKVKA
B2: variant PD-L2 IgV I13V/H15Q/T47A/Q82R Fc fusion (Fc fusion)
chain: LFTVTVPKELYIVEQGSNVTLECNFDTGSHVNLGAITASLQKVENDASPHRERATLLEEQLPLGKASFHIPQVQVRDEGQYRCIIIYGVAWDYKYLTLKVKA
B3: variant PD-L2 IgV I13V/H15Q/Q82R/V89D Fc fusion (Fc fusion)
chain: LFTVTVPKELYIVEQGSNVTLECNFDTGSHVNLGAITASLQKVENDTSPHRERATLLEEQLPLGKASFHIPQVQVRDEGQYRCIIIYGDAWDYKYLTLKVKA
B4: variant PD-L2 IgV H15Q/T47A/S67L/Q82R/V89D Fc fusion (Fc fusion)
chain: LFTVTVPKELYIIEQGSNVTLECNFDTGSHVNLGAITASLQKVENDASPHRERATLLEEQLPLGKALFHIPQVQVRDEGQYRCIIIYGDAWDYKYLTLKVKA
B5: variant PD-L2 IgV I13V/H15Q/Q72H/R76G/I86T Fc fusion (Fc fusion)
chain: LFTVTVPKELYIVEQGSNVTLECNFDTGSHVNLGAITASLQKVENDTSPHRERATLLEEQLPLGKASFHIPHVQVGDEGQYQCIITYGVAWDYKYLTLKVKA
B6: variant PD-L2 IgV I13V/H15Q/T47A/H69L/R76G/V89D Fc fusion (Fc fusion)
chain: LFTVTVPKELYIVEQGSNVTLECNFDTGSHVNLGAITASLQKVENDASPHRERATLLEEQLPLGKASFLIPQVQVGDEGQYQCIIIYGDAWDYKYLTLKVKA
B7: variant PD-L2 IgV F2L/H15Q/D46E/T47A/Q72H/R76G/Q82R/V89D Fc fusion (Fc fusion)
chain: LLTVTVPKELYIIEQGSNVTLECNFDTGSHVNLGAITASLQKVENEASPHRERATLLEEQLPLGKASFHIPHVQVGDEGQYRCIIIYGDAWDYKYLTLKVKA
B8: variant PD-L2 IgV I13V/H15Q/V31A/N45S/Q82R/V89D Fc fusion (Fc fusion)
chain: LFTVTVPKELYIVEQGSNVTLECNFDTGSHANLGAITASLQKVESDTSPHRERATLLEEQLPLGKASFHIPQVQVRDEGQYRCIIIYGDAWDYKYLTLKVKA
B9: variant PD-L2 IgV H15Q/L33P/T47A/S67L/P71S/V89D Fc fusion (Fc fusion)
chain: LFTVTVPKELYIIEQGSNVTLECNFDTGSHVNPGAITASLQKVENDASPHRERATLLEEQLPLGKALFHISQVQVRDEGQYQCIIIYGDAWDYKYLTLKVKA
B10: variant PD-L2 IgV I12V/I13V/H15Q/T47A/Q82R/V89D Fc fusion (Fc fusion)
chain: LFTVTVPKELYVVEQGSNVTLECNFDTGSHVNLGAITASLQKVENDASPHRERATLLEEQLPLGKASFHIPQVQVRDEGQYRCIIIYGDAWDYKYLTLKVKA
B11: variant PD-L2 IgV H15Q/V31M/S67L/Q82R/V89D Fc fusion (Fc fusion)
chain: LFTVTVPKELYIIEQGSNVTLECNFDTGSHMNLGAITASLQKVENDTSPHRERATLLEEQLPLGKALFHIPQVQVRDEGQYRCIIIYGDAWDYKYLTLKVKA
B12: variant PD-L2 IgV I13V/H15Q/R76G/D77N/Q82R/V89D Fc fusion (Fc fusion)
chain: LFTVTVPKELYIVEQGSNVTLECNFDTGSHVNLGAITASLQKVENDTSPHRERATLLEEQLPLGKASFHIPQVQVGNEGQYRCIIIYGDAWDYKYLTLKVKA
B13: variant PD-L2 IgV I13V/H15Q/I36V/T47A/S67L/V89D Fc fusion (Fc fusion)
chain: LFTVTVPKELYIVEQGSNVTLECNFDTGSHVNLGAVTASLQKVENDASPHRERATLLEEQLPLGKALFHIPQVQVRDEGQYQCIIIYGDAWDYKYLTLKVKA
B14: variant PD-L2 IgV I13V/S67L/Q82R/V89D Fc fusion (Fc fusion)
chain: LFTVTVPKELYIVEHGSNVTLECNFDTGSHVNLGAITASLQKVENDTSPHRERATLLEEQLPLGKALFHIPQVQVRDEGQYRCIIIYGDAWDYKYLTLKVKA

molecular target: human PD-1 (human) (UniProt Q15116)
Sequence (Q15116 25-288): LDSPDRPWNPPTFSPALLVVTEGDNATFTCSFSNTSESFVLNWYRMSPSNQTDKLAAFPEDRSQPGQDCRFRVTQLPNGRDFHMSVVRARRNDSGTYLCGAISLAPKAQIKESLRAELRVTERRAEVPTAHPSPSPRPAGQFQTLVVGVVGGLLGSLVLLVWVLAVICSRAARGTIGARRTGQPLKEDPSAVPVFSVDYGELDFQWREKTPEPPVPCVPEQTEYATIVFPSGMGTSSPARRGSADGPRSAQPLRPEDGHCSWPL

**Q.** For B1, which IFN gamma levels pg/mL (MLR) is on record?
**A.** 1120 pg/mL

**Q.** B2 was tested. Which IFN gamma levels pg/mL (MLR) did it give?
**A.** 1700 pg/mL

**Q.** Which IFN gamma levels pg/mL (MLR) does the source give for B3 here?
**A.** 1600 pg/mL

**Q.** With B4 as the binder, how does the IFN gamma levels pg/mL (MLR) read?
**A.** 1200 pg/mL

**Q.** With B5 as the binder, how does the IFN gamma levels pg/mL (MLR) read?
**A.** 1220 pg/mL

**Q.** B6 was tested. Which IFN gamma levels pg/mL (MLR) did it give?
**A.** 1080 pg/mL

**Q.** With B7 as the binder, how does the IFN gamma levels pg/mL (MLR) read?
**A.** 1170 pg/mL

**Q.** Which IFN gamma levels pg/mL (MLR) does the source give for B8 here?
**A.** 1720 pg/mL

**Q.** For B9, which IFN gamma levels pg/mL (MLR) is on record?
**A.** 1290 pg/mL

**Q.** Which IFN gamma levels pg/mL (MLR) does the source give for B10 here?
**A.** 1530 pg/mL

**Q.** With B11 as the binder, how does the IFN gamma levels pg/mL (MLR) read?
**A.** 1210 pg/mL

**Q.** With B12 as the binder, how does the IFN gamma levels pg/mL (MLR) read?
**A.** 1190 pg/mL

**Q.** Which IFN gamma levels pg/mL (MLR) does the source give for B13 here?
**A.** 1360 pg/mL

**Q.** With B14 as the binder, how does the IFN gamma levels pg/mL (MLR) read?
**A.** 1370 pg/mL
